Experimental data: patent US20220348617A1 (published 2022)
Each block holds one binder with its values, some of them ahead of it.

Legend:
hDLL4 site2 = experiment: SPR; N-EGF3
DLL4.v3 = experiment: SPR; N-EGF3
Notch2 EGF domains 6-13 [1] = target: T1, Notch2 EGF domains 6-13 (human, UniProt Q04721 221-530); experiment: SPR
T1 chain: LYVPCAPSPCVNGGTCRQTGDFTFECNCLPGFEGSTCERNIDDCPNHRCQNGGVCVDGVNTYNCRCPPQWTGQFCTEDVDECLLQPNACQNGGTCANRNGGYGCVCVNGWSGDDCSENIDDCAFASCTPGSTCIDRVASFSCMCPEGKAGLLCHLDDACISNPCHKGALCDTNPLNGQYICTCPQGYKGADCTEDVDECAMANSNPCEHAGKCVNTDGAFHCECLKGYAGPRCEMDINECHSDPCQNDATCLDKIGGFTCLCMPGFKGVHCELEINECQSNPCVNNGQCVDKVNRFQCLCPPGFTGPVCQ

Notch1 EGF domains 6-13 [2] = target: T2, Notch1 EGF domains 6-13 (human, UniProt P46531 218-526); experiment: SPR
T2 chain: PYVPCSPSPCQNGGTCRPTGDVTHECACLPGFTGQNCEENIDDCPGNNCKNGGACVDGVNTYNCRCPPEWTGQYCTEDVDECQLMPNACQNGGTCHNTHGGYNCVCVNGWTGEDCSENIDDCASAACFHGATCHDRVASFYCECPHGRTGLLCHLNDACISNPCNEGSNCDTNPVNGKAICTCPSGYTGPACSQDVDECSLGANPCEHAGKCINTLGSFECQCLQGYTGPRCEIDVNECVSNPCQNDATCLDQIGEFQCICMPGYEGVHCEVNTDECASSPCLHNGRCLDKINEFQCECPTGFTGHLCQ

Notch 3 EGF domains 5-12 [3] = target: T3, Notch 3 EGF domains 5-12 (human, UniProt Q9UM47 197-505); experiment: SPR
T3 chain: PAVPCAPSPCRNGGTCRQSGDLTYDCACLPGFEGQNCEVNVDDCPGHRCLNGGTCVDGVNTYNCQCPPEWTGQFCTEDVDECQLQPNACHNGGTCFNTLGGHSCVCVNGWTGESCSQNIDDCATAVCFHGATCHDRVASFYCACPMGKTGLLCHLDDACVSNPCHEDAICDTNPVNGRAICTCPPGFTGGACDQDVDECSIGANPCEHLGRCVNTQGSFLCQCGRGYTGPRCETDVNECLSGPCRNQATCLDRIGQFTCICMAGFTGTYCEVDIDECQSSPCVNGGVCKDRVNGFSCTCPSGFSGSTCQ

Notch2 EGF domains 6-13 [4] = target: T1, Notch2 EGF domains 6-13; experiment: SPR; N-EGF3
Notch1 EGF domains 6-13 [5] = target: T2, Notch1 EGF domains 6-13; experiment: SPR; N-EGF3
Notch 3 EGF domains 5-12 [6] = target: T3, Notch 3 EGF domains 5-12; experiment: SPR; N-EGF3

B1: hNotch2 (EGF6-13) (receptor)
chain: T1 chain
Kd (hDLL4 site2): 3.25 µM | Kd (DLL4.v3): 0.0314 µM

B3: hNotch1 (EGF6-13) (receptor)
chain: T2 chain
Kd (hDLL4 site2): 0.471 µM | Kd (DLL4.v3): 0.02 µM

The remaining lines, values ahead:

Kd (hDLL4 site2): 1.65 µM | Kd (DLL4.v3): 0.0273 µM
B2: hNotch 3 (EGF6-13) (receptor)
chain: T3 chain

Kd (Notch2 EGF domains 6-13 [1]): 4.99 µM | Kd (Notch1 EGF domains 6-13 [2]): 4.04 µM | Kd (Notch 3 EGF domains 5-12 [3]): 10.4 µM | Kd (Notch2 EGF domains 6-13 [4]): 35.7 µM | Kd (Notch1 EGF domains 6-13 [5]): 17.9 µM | Kd (Notch 3 EGF domains 5-12 [6]): 22.2 µM
B4: wildtype (WT) human DLL4 (ligand)
chain: SGVFQLQLQEFINERGVLASGRPCEPGCRTFFRVCLKHFQAVVSPGPCTFGTVSTPVLGTNSFAVRDDSSGGGRNPLQLPFNFTWPGTFSLIIEAWHAPGDDLRPEALPPDALISKIAIQGSLAVGQNWLLDEQTSTLTRLRYSYRVICSDNYYGDNCSRLCKKRNDHFGHYVCQPDGNLSCLPGWTGEYCQQPICLSGCHEQNGYCSKPAECLCRPGWQGRLCNECIPHNGCRHGTCSTPWQCTCDEGWGGLFCDQDLNYCTHHSPCKNGATCSNSGQRSYTCTCRPGYTGVDCE
